According to patent US20190187132A1:
Like-named read-outs stand apart in the source and are kept apart here.

Key:
[1] = biological target: Trichinella spiralis lysate
[2] = biological target: Trichinella spiralis lysate; remark: listed apart in the source
[3] = biological target: Trichinella spiralis E/S antigen

B1: Anti-[TRISP][18H1] (antibody, V domains shown)
VH: QVQLKESGPGLVQPSQTLSLTCTVSGLSLTSNSVGWIRQPPGKGLEWMGIIWSNGGTDYNSAIKSRLSISRDTSKSQVFLKMHSLQTEDTAMYFCARGPYYGSYRLGYFDYWGQGVMVTVSS
VL: DVVMTQSPSSLAVSAGETVTLNCQSSQSLLYSGTQNNYLAWYQQKPGQSPKLLISWASTRQSGVPLRFIGSGSGTDFTLTITSVQAEDLAIYYCQQFYDTPLTFGSGTKLEIK
For B1, the detection limit [1] was 1 ng/mL and the detection limit [2] was 10 µg/mL.

B2: Anti-[TRISP][C9] (antibody, V domains shown)
VH: AVTLDESGGGLQTPGGALSLVCKASGFSISSYSMQWVRQAPGKGLEWVAGIYYDGNTWYAPAVKGRATISRDNGQSTVRLRLNNLRAEDTATYFCAKYAGGYSIDAWGHGTEVIVSS
VL: ALTQPSSVSANPGETVKITCSGSSGSYGWYQQKSPGSGPVTVIYYNDKRPSDIPSRFSGSASGSTATLTITGVQAEDEAVYFCGGYDSSTYVGIFGAGTTLTVL
Work on B2 yielded a detection limit [3] of 6 ng/mL.
